The results in this text go back to paper PMC4477859.

In this experiment the target is wild-type CENP-A nucleosome arrays with Myc-H4 (UniProt P49450). Nature of the experiment: pull-down.
Sequence of UniProt P49450 (P49450 whole entry, looked up): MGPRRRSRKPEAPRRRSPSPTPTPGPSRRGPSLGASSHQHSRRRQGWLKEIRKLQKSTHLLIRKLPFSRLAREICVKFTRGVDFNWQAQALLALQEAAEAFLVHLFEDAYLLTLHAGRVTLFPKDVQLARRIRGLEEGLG

On to CENP-C (natural protein), for which the CENP-C to CENP-A nucleosome ratio, low against high saturation arrays came out at 2 fold.
